The numbers were not newly measured in patent US7276335B1, “Designing compounds specifically inhibiting ribonucleic acid function” (Massachusetts Institute of Technology, priority 1993, dated 2007), which cites them from elsewhere.

In series [1] the test system is normal cells as well as tumor cells. As to conditions: too toxic for use clinically to treat tumors.
A further series deals with eukaryotic 28 S rRNA. As to conditions: cleaves one phosphodiester bond on the 3′ side of G-4325.

B1: α-sarcin: cytotoxic protein with potent antisarcoma activity, isolated from a mold, that inactivates ribosomes by cleaving the rRNA (protein, UniProt P00655 28-177, looked up)
Ribonuclease alpha-sarcin: AVTWTCLNDQKNPKTNKYETKRLLYNQNKAESNSHHAPLSDGKTGSSYPHWFTNGYDGDGKLPKGRTPIKFGKSDCDRPPKHSKDGNGKTDHYLLEFPTFPDGHDYKFDSKKPKENPGPARVIYTYPNKVFCGIIAHTKENQGELKLCSH
Consider B1, for which the antisarcoma activity result with sarcoma was “potent antisarcoma activity”. In addition, in series [1], the toxicity to cells result is “highly toxic to normal cells as well as tumor cells”. Moreover, the “inactivation of ribosomes by rRNA cleavage” value with eukaryotic 28 S rRNA is given as “inactivates ribosomes by cleaving the rRNA”.
